The results in this text go back to paper PMC6478803.

The target of the data set is FleQ (Pseudomonas syringae pv. tomato DC3000) (UniProt Q884Y2). Put plainly: EMSA. To be noted: STAD: 25 mM Tris-acetate pH 8.0, 8 mM Mg-acetate, 10 mM KCl, 3.5% PEG-8000, 1 mM DTT, 10 ug/ml poly(dI-dC), 200 ug/ml BSA; 20 nM probe (Results: 1 nM); 30 min ….

As for “GTTCGATTAATCCAGTGAGCCTTTCGGTGCAGTTGGTCTGCGCCAACGCCACTGTCGGCGCGCCGCTGAATCTGGGTGACCTCAAGGCCGGTGAACGCTATAGCATCTTGCTGGTGCCGTCCGCCACAGGCCCGCGCCTGTTGTCGGCCACGGACACACTGTCCAACTGATCGGGTTCTGTCGTCGTTATGGTATTCGCCTCGCTTGAGTTTCTGATGGTGTTCCTGCCGGCTTTTTTGCTGGCCTATGCCGCAAGCCCGGCGGCGTGGCGCAACGTCGTTCTGTTGATCGGCAGTTGG (double strand) [wssH (wssH1)]”, the binding entry was “no binding”.
